Assay results taken from publication PMC10397247.

Key:
[1] = target: T1, 4H3438-AA; assay: two-hybrid library CCmax; details: mean of both orientations;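 note: natural log of median RNA to DNA barcode read ratio; higher means stronger binding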
T1 chain: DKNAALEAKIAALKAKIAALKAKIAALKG

[2] = target: T2, 4H2330-AA; assay: two-hybrid library CCmax;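 note: natural log of median RNA to DNA barcode read ratio; higher means stronger binding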
T2 chain: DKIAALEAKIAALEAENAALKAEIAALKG

[3] = target: T3, 4H536-AA; assay: two-hybrid library CCmax; details: mean of both orientations;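 note: natural log of median RNA to DNA barcode read ratio; higher means stronger binding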
T3 chain: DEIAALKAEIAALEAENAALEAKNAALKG

[4] = target: GCN2_T; assay: two-hybrid library CCmax; details: mean of both orientations;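 note: natural log of median RNA to DNA barcode read ratio; higher means stronger binding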
[5] = target: T4, 4H2343-AA; assay: two-hybrid library CCmax; details: mean of both orientations;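 note: natural log of median RNA to DNA barcode read ratio; higher means stronger binding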
T4 chain: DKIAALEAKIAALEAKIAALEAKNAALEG

[6] = target: T5, 4H310-AA; assay: two-hybrid library CCmax; details: mean of both orientations;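 note: natural log of median RNA to DNA barcode read ratio; higher means stronger binding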
T5 chain: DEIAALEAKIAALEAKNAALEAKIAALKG

[7] = target: T6, 4H850-AA; assay: two-hybrid library CCmax; details: mean of both orientations
T6 chain: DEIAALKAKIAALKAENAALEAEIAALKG

[8] = target: T7, 4H3015-AA; assay: two-hybrid library CCmax; details: mean of both orientations
T7 chain: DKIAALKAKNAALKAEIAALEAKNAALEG

[9] = target: T8, 4H930-AA; assay: two-hybrid library CCmax; details: mean of both orientations
T8 chain: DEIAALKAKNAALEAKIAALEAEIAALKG

[10] = target: T9, 4H3395-AA; assay: two-hybrid library CCmax; details: mean of both orientations
T9 chain: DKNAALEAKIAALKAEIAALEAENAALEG

[11] = target: T10, 4H629-AA; assay: two-hybrid library CCmax; details: mean of both orientations
T10 chain: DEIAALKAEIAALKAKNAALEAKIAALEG

[12] = target: T11, 4H2389-AA; assay: two-hybrid library CCmax; details: mean of both orientations
T11 chain: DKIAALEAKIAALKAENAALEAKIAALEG

[13] = target: T12, 4H909-AA; assay: two-hybrid library CCmax; details: mean of both orientations
T12 chain: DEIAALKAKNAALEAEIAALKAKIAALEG

[14] = target: T13, 4H710-AA; assay: two-hybrid library CCmax; details: mean of both orientations
T13 chain: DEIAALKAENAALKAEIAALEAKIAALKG

[15] = target: T14, 4H2466-AA; assay: two-hybrid library CCmax; details: mean of both orientations
T14 chain: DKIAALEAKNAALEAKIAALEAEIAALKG

[16] = target: T15, 4H745-AA; assay: two-hybrid library CCmax; details: mean of both orientations
T15 chain: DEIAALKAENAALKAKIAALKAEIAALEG

[17] = target: T16, 4H2592-AA; assay: two-hybrid library CCmax; details: mean of both orientations
T16 chain: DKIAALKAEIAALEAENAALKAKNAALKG

[18] = target: T17, 4H3590-AA; assay: two-hybrid library CCmax; details: mean of both orientations
T17 chain: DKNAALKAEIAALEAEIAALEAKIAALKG

[19] = target: T18, 4H249-AA; assay: two-hybrid library CCmax; details: mean of both orientations
T18 chain: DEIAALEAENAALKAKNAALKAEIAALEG

[20] = target: T19, 4H3381-AA; assay: two-hybrid library CCmax; details: mean of both orientations
T19 chain: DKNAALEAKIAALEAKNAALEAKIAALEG

[21] = target: T20, 4H2438-AA; assay: two-hybrid library CCmax; details: mean of both orientations
T20 chain: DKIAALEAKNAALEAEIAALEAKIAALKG

[22] = target: T21, 4H2725-AA; assay: two-hybrid library CCmax; details: mean of both orientations
T21 chain: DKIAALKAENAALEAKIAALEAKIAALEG

[23] = target: T22, 4H3120-AA; assay: two-hybrid library CCmax; details: mean of both orientations
T22 chain: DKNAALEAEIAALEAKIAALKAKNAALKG

[24] = target: T23, 4H452-AA; assay: two-hybrid library CCmax; details: mean of both orientations
T23 chain: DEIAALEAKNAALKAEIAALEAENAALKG

[25] = target: T24, 4H3165-AA; assay: two-hybrid library CCmax; details: mean of both orientations
T24 chain: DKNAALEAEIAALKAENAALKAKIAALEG

[26] = target: T25, 4H3009-AA; assay: two-hybrid library CCmax; details: mean of both orientations
T25 chain: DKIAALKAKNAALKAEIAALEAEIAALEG

[27] = target: T26, 4H56-AA; assay: two-hybrid library CCmax; details: mean of both orientations
T26 chain: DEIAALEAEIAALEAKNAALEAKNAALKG

[28] = target: T27, 4H3016-AA; assay: two-hybrid library CCmax; details: mean of both orientations
T27 chain: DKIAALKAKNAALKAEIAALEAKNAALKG

[29] = target: T28, 4H2865-AA; assay: two-hybrid library CCmax; details: mean of both orientations
T28 chain: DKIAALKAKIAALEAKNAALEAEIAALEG

[30] = target: T29, 4H406-AA; assay: two-hybrid library CCmax; details: mean of both orientations
T29 chain: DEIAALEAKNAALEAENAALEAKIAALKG

[31] = target: T30, 4H3073-AA; assay: two-hybrid library CCmax; details: mean of both orientations
T30 chain: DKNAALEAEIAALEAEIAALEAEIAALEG

[32] = target: T31, 4H3130-AA; assay: two-hybrid library CCmax; details: mean of both orientations
T31 chain: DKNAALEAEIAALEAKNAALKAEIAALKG

[33] = target: T32, 4H570-AA; assay: two-hybrid library CCmax; details: mean of both orientations
T32 chain: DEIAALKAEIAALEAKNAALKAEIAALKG

[34] = target: T33, 4H2774-AA; assay: two-hybrid library CCmax; details: mean of both orientations
T33 chain: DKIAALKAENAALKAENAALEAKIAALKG

[35] = target: 4H_GCN4; assay: two-hybrid library CCmax; details: mean of both orientations
[36] = target: T34, 4H458-AA; assay: two-hybrid library CCmax; details: mean of both orientations
T34 chain: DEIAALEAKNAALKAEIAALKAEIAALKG

[37] = target: T35, 4H347-AA; assay: two-hybrid library CCmax; details: mean of both orientations
T35 chain: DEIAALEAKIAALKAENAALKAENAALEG

[38] = target: T36, 4H2732-AA; assay: two-hybrid library CCmax; details: mean of both orientations
T36 chain: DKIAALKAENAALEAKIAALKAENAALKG

[39] = target: T37, 4H3753-AA; assay: two-hybrid library CCmax; details: mean of both orientations
T37 chain: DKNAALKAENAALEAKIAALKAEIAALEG

[40] = target: T38, 4H_BCR; assay: two-hybrid library CCmax; details: mean of both orientations
T38 chain: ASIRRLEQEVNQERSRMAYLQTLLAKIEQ

[41] = target: T39, 4H94-AA; assay: two-hybrid library CCmax; details: mean of both orientations
T39 chain: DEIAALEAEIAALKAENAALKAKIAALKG

[42] = target: T40, 4H891-AA; assay: two-hybrid library CCmax; details: mean of both orientations
T40 chain: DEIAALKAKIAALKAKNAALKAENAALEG

[43] = target: T41, 4H485-AA; assay: two-hybrid library CCmax; details: mean of both orientations
T41 chain: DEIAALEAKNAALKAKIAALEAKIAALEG

[44] = target: T42, 4H_APH; assay: two-hybrid library CCmax; details: mean of both orientations
T42 chain: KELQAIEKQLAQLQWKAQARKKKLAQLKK

[45] = target: T43, 4H3001-AA; assay: two-hybrid library CCmax; details: mean of both orientations
T43 chain: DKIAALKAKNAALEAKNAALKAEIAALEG

[46] = target: T44, 4H3865-AA; assay: two-hybrid library CCmax; details: mean of both orientations
T44 chain: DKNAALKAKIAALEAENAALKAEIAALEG

[47] = target: T45, 4H2698-AA; assay: two-hybrid library CCmax; details: mean of both orientations
T45 chain: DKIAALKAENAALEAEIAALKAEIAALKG

[48] = target: T46, 4H3697-AA; assay: two-hybrid library CCmax; details: mean of both orientations
T46 chain: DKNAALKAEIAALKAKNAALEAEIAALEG

[49] = target: T47, 4H797-AA; assay: two-hybrid library CCmax; details: mean of both orientations
T47 chain: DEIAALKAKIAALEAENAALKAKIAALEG

[50] = target: T48, 4H2473-AA; assay: two-hybrid library CCmax; details: mean of both orientations
T48 chain: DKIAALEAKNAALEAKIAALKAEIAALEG

[51] = target: T49, 4H2649-AA; assay: two-hybrid library CCmax; details: mean of both orientations
T49 chain: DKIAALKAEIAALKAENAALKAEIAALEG

[52] = target: T50, 4H2931-AA; assay: two-hybrid library CCmax; details: mean of both orientations
T50 chain: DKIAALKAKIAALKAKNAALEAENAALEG

[53] = target: T51, 4H3410-AA; assay: two-hybrid library CCmax; details: mean of both orientations
T51 chain: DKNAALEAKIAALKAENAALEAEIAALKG

[54] = target: T52, 4H3782-bH; assay: two-hybrid library CCNG1
T52 chain: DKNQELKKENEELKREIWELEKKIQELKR

[55] = target: T53, 4H462-bH; assay: two-hybrid library CCNG1
T53 chain: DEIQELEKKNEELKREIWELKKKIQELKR

[56] = target: T54, 4H918-bH; assay: two-hybrid library CCNG1
T54 chain: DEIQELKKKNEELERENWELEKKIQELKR

[57] = target: T55, 4H72-bH; assay: two-hybrid library CCNG1
T55 chain: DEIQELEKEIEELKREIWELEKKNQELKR

[58] = target: T56, 4H3843-bH; assay: two-hybrid library CCNG1
T56 chain: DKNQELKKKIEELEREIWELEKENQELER

[59] = target: T57, 4H607-bH; assay: two-hybrid library CCNG1
T57 chain: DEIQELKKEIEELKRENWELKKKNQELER

[60] = target: T58, 4H687-bH; assay: two-hybrid library CCNG1
T58 chain: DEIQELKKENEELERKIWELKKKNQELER

[61] = target: T59, 4H797-bH; assay: two-hybrid library CCNG1
T59 chain: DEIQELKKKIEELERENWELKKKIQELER

[62] = target: T60, 4H953-bH; assay: two-hybrid library CCNG1
T60 chain: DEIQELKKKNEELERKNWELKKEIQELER

[63] = target: T61, 4H3606-bH; assay: two-hybrid library CCNG1; details: mean of both orientations
T61 chain: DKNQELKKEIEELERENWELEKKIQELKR

[64] = target: T62, 4H883-bH; assay: two-hybrid library CCNG1
T62 chain: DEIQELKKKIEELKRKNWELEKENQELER

[65] = target: T63, 4H370-bH; assay: two-hybrid library CCNG1
T63 chain: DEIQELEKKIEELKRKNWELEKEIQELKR

[66] = target: T64, 4H568-bH; assay: two-hybrid library CCNG1
T64 chain: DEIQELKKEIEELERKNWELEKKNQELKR

[67] = target: T65, 4H967-bH; assay: two-hybrid library CCNG1
T65 chain: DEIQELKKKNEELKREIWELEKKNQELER

[68] = target: T66, 4H4001-bH; assay: two-hybrid library CCNG1
T66 chain: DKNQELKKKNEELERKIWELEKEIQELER

Sequence of 4H_GCN4 (chain, as listed by the source): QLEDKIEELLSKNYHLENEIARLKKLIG

DKIAALEAKIAALEAENAALKAEIAALKG [4H2330-AA]
interaction score [1]: -1.59 | interaction score [2]: 2.14 | interaction score [3]: -1.33 | interaction score [4]: -1.77 | interaction score [5]: -1.3 | interaction score [6]: -0.633 | interaction score [7]: 1.43 | interaction score [8]: -1.54 | interaction score [9]: -1.22 | interaction score [10]: -1.56 | interaction score [11]: -1.21 | interaction score [12]: -0.00244 | interaction score [13]: -1.17 | interaction score [14]: -1.49 | interaction score [15]: -1.14 | interaction score [16]: -1.42 | interaction score [17]: -0.144 | interaction score [18]: -1.06 | interaction score [19]: -1.48 | interaction score [20]: -1.67 | interaction score [21]: -0.853 | interaction score [22]: -1.57 | interaction score [23]: -1.29 | interaction score [24]: -1.85 | interaction score [25]: -1.39 | interaction score [26]: -1.35 | interaction score [27]: -1.47 | interaction score [28]: -1.44 | interaction score [29]: -0.443 | interaction score [30]: -0.544 | interaction score [31]: -1.5 | interaction score [32]: 0.306 | interaction score [33]: 0.717 | interaction score [34]: -1.55 | interaction score [35]: -1.88 | interaction score [36]: -1.07 | interaction score [37]: -0.642 | interaction score [38]: -1.45 | interaction score [39]: -1.31 | interaction score [40]: -2.26 | interaction score [41]: 0.579 | interaction score [42]: -1.54 | interaction score [43]: -1.35 | interaction score [44]: -2.24 | interaction score [45]: -1.21 | interaction score [46]: 0.945 | interaction score [47]: -1.05 | interaction score [48]: -1.56 | interaction score [49]: -0.788 | interaction score [50]: -0.502 | interaction score [51]: 0.31 | interaction score [52]: -1.63 | interaction score [53]: 0.287

DKNQELKKEIEELERENWELEKKIQELKR [4H3606-bH]
interaction score [54]: -0.967 | interaction score [55]: -0.116 | interaction score [56]: -0.633 | interaction score [57]: -0.306 | interaction score [58]: 0.511 | interaction score [59]: -0.729 | interaction score [60]: -0.48 | interaction score [61]: -0.0905 | interaction score [62]: -1.36 | interaction score [63]: -0.593 | interaction score [64]: 0.484 | interaction score [65]: 1.69 | interaction score [66]: 1.11 | interaction score [67]: 1.21 | interaction score [68]: 0.174
